Data published in patent US20040018977A1 (published 2004).

B1: CG51896-10, intracellular domain, aa 690-1047, Binding Domain (BD) fusion (other)
chain: VCDHRRKDVAVVQRKEKELTHSRRGSMSSVTKLSGLFGDTQSKDPKPEAILTPLMHNGKLATPGNTAKMLIKADQHHLDLTALPTPESTPTLQQKRKPSRGSREWERNQNLINACTKDMPPMGSPVIPTDLPLRASPSHIPSVVVLPITQQGYQHEYVDQPKMSEVAQMALEDQAATLEYKTIKEHLSSKSPNHGVNLVENLDSLPPKVPQREASLGPPGASLSQTGLSKRLEMHHSSSYGVDYKRSYPTNSLTRSHQATTLKRNNTNSSNSSHLSRNQSFGRGDNPPPAPQRVDSIQVHSSQPSGQAVTVSRQPSLNAYNSLTRSGLKRTPSLKPDVPPKPSFAPLSTSMKPNDACT
notes: also called NOV2r
B2: CG51896-10, intracellular domain, aa 950-1047, Binding Domain (BD) fusion (other, not shown: large carriers)
chain: TLKRNNTNSSNSSHLSRNQSFGRGDNPPPAPQRVDSIQVHSSQPSGQAVTVSRQPSLNAYNSLTRSGLKRTPSLKPDVPPKPSFAPLSTSMKPNDACT
notes: also called NOV2r
B3: CG51896-10, intracellular domain, aa 805-1047, Binding Domain (BD) fusion (other, not shown: large carriers)
chain: TKDMPPMGSPVIPTDLPLRASPSHIPSVVVLPITQQGYQHEYVDQPKMSEVAQMALEDQAATLEYKTIKEHLSSKSPNHGVNLVENLDSLPPKVPQREASLGPPGASLSQTGLSKRLEMHHSSSYGVDYKRSYPTNSLTRSHQATTLKRNNTNSSNSSHLSRNQSFGRGDNPPPAPQRVDSIQVHSSQPSGQAVTVSRQPSLNAYNSLTRSGLKRTPSLKPDVPPKPSFAPLSTSMKPNDACT
notes: also called NOV2r

Target: T1, NCK2, aa 1-380, Activation Domain (AD) fusion (human, UniProt O43639 1-380)
T1 construct: range 1-380; Also used for the sentences that name NCK2 as a partner of the cytoplasmic domain
T1 sequence (O43639 whole entry, the tested form may be a part): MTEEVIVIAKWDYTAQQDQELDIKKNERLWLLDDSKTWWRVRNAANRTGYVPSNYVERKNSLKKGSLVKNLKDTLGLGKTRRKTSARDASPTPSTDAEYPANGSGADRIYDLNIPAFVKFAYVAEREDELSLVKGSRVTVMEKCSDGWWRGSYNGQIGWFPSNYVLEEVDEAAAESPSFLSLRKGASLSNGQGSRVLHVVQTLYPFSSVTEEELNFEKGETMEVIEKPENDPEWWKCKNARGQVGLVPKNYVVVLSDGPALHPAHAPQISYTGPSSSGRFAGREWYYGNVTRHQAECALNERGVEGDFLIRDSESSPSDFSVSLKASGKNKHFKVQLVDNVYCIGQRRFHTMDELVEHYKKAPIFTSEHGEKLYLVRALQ
Assay: yeast two-hybrid matrix mating assay, beta-gal read-out
Experimental: Matrix Mating Haploid cells for the PathCalling matrix mating assay are grown up individually in 384 well plates using selective liquid media. After 1-2 days, the mating is done entirely in a nutrient rich media. The resulting diploid cells are then selected using a selective liquid media. The optical density (O.D.) of the diploid cells is measured using a spectrophotometer to measure and the cells are then transferred to a fresh plate for a Beta-gal assay. This assay is performed to determine if there is an interaction between the two proteins being tested. The Beta-gal assay is performed as follows:
2. The β-gal buffer is made using the following (per 384 well plate): 7.1 ml Sigma water, 7.5 ml 4X Z-buffer, 0.3 ml 20% IGEPAL, 30 mg CPRG, 75 μl Lyticase (10,000 U/ml) and 3.30 μl of β-gal buffer is added to each well of the plate made in step 1 using a multi-drop 384.

Binding result, binds:
B1
B2
B3
